Measured values taken from paper PMC6167325, “Outward open conformation of a Major Facilitator Superfamily multidrug/H^+ antiporter provides insights into switching mechanism” (Nature Communications, 2018).

Molecular target: T1, MdfA, major facilitator superfamily (MFS) drug/H+ antiporter from Escherichia coli (Escherichia coli, UniProt P0AEY8)
T1 construct: MdfA, multidrug/H+ antiporter of E. coli; wild type; the final model of the complex holds residues Gln14-Lys400; One complex in the asymmetric unit; also called MFS-MDR transporter; source: purified
T1 sequence (P0AEY8 whole entry, the tested form may be a part): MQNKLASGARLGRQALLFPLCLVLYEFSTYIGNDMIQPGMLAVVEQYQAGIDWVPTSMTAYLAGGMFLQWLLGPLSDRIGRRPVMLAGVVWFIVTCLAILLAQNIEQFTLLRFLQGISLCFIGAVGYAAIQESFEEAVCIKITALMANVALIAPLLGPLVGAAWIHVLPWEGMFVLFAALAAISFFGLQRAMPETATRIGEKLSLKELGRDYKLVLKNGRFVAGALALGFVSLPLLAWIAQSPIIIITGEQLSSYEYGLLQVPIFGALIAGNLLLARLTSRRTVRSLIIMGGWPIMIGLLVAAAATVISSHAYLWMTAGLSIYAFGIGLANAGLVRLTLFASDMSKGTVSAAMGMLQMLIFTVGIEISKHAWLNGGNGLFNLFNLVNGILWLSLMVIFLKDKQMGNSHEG
Experiment: crystal structure; co-crystals of MdfA in complex with the Fab fragment grown in the lipidic cubic phase; 3.4 Å; space group P6(1)22, one complex in the asymmetric unit; data at 100 K
Conditions: both partners purified

B1: Fab YN1074 (Fab, V domains shown)
VH: EVQLKESGPGLVAPSQSLSITCTVSGFSFSIYGLHWVRQPPGKGLEWLGMIWGGGRTDYNSALKSRLSISKDNSKSQVFLKMKSLQTDDTAMYYCARNSGYGNLAYWGQGTLVTVSA
VL: DIVMTQSPSSLSASLGERVSLTCRASQDIGYSLNWLQQEPDGTIKRLIYATSNLDSGVPKRFSGSRSGSDYSLTISSLESEDFVDYYCLQYASSPYTFGGGTKLEIK
notes: the model holds residues Leu4-Pro216; the model holds residues Asp1-Arg211; also called Fab fragment
B1: binds.
